Assay results published in paper PMC13470446, “Microtubule-dependent regulation of chromatin dynamics by the Smc5/6 complex” (iScience, 2026).

Target: microtubule polymers (Polymerised alpha/beta-tubulin heterodimers (one repeat given). Source is not printed (assay 'as previously described' in a cited paper); commercial mammalian brain tubulin is assumed, porcine taken a)
Assay: co-sedimentation; microtubule pelleting assay; fraction of microtubule-bound Smc5 plotted against microtubule concentration, Kd by curve fitting to a hyperbola; 3 independent experiments
Conditions: both partners purified

microtubule polymers (Polymerised alpha/beta-tubulin heterodimers (one repeat given). Source is not printed (assay 'as previously described' in a cited paper); commercial mammalian brain tubulin is assumed, porcine taken a), sequence (chain, as listed by the source, chain 1 of 2): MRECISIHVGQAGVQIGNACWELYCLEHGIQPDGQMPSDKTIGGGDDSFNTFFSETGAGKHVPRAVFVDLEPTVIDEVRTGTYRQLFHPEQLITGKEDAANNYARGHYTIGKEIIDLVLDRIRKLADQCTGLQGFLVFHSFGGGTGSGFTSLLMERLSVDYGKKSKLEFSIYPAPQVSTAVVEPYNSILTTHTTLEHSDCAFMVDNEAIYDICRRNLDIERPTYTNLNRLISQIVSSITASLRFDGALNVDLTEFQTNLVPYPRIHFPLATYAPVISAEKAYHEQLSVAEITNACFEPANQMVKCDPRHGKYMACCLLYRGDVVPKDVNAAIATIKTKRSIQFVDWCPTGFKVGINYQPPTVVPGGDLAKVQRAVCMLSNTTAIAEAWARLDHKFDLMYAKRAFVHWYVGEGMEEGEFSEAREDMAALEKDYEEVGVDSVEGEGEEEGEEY
microtubule polymers (Polymerised alpha/beta-tubulin heterodimers (one repeat given). Source is not printed (assay 'as previously described' in a cited paper); commercial mammalian brain tubulin is assumed, porcine taken a), sequence (chain, as listed by the source, chain 2 of 2): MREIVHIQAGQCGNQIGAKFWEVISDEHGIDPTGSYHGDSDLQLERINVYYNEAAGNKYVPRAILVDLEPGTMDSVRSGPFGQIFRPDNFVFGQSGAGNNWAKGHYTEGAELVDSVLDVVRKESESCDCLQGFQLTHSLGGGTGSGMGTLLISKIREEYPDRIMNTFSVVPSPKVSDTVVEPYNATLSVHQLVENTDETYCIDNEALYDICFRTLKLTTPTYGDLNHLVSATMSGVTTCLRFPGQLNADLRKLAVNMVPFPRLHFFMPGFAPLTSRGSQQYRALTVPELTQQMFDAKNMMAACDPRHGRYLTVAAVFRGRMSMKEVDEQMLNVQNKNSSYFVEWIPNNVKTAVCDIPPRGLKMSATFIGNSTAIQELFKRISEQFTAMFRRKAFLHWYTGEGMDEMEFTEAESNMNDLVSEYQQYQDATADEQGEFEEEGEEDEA

B1: Smc5-2KE hinge domain (residues 215–885, K624E K631E) (domain or fragment, S. cerevisiae, UniProt Q08204 215-885, looked up)
chain: LRELQGNEQSLQKDLDFKKAKIVHLRQESDKLRKSVESLRDFQNKKGEIELHSQLLPYVKVKDHKEKLNIYKEEYERAKANLRAILKDKKPFANTKKTLENQVEELTEKCSLKTDEFLKAKEKINEIFEKLNTIRDEVIKKKNQNEYYRGRTKKLQATIISTKEDFLRSQEILAQTHLPEKSVFEDIDIKRKEIINKEGEIRDLISEIDAKANAINHEMRSIQRQAESKTKSLTTTDKIGILNQDQDLKEVRDAVLMVREHPEMKDKILEPPIMTVSAINAQFAAYLAQCVDYNTSKALTVVDSDSYKLFANPILDKFKVNLRELSSADTTPPVPAETVRDLGFEGYLSDFITGDKRVMKMLCQTSKIHTIPVSRRELTPAQIKKLITPRPNGKILFKRIIHGNRLVDIEQSAYGSEQVFPTDVSIKQTNFYQGSIMSNEQKIRIENEIINLKNEYNDRKSTLDALSNQKSGYRHELSELASKNDDINREAHQLNEIRKKYTMRKSTIETLREKLDQLKREARKDVSQKIKDIDDQIQQLLLKQRHLLSKMASSMKSLKNCQKELISTQILQFEAQNMDVSMNDVIGFFNEREADLKSQYEDKKKFVKEMRDTPEFQSWMREIRSYDQDTKEKLNKVAEKYEEEGNFNLSFVQDVLDKLESEIAMVNHDES
notes: Smc5, S. cerevisiae, hinge domain construct, residues 215-885, with K624E and K631E; source: purified
  fold reduction in binding affinity against wild-type Smc5: 3 fold
